According to publication PMC10618305, “An intramolecular disulphide bond in human 4E-T affects its binding to eIF4E1a protein” (European Biophysics Journal, 2023):
Positions count from the first letter of the chain named. In names and notes the source's numbering stands. Each block holds one molecule with its values, some of them ahead of it. Bridge positions count the residues as written; N and C are the ends.

What was measured:
[1] = target: human 4E-T(1-68) wild type, monomer SH (both cysteines reduced) (human) (UniProt Q9NRA8); assay: SEC; non-reducing: monomer fractions incubated 24 h at 20 °C in TCEP-free 50 mM HEPES-KOH pH 7.2 with KCl, Enrich SEC70 column, 20 °C; dimers are held by intermolecular disulphide bonds
[2] = target: human eIF4E1a protein (human) (UniProt P06730); assay: differential scanning fluorimetry (thermal shift); non-reducing: 50 mM HEPES-KOH pH 7.2, 100 mM KCl, no TCEP; 5 µM eIF4E1a with 0-50 µM h4E-T(1-68) variant incubated without TCEP (up to 48 h, 4 or 20 °C), or SEC-purified dimers at 1:1; SYPRO Orange; shift of the Tm of eIF4E1a
Sequence of human eIF4E1a protein (human) (P06730 whole entry): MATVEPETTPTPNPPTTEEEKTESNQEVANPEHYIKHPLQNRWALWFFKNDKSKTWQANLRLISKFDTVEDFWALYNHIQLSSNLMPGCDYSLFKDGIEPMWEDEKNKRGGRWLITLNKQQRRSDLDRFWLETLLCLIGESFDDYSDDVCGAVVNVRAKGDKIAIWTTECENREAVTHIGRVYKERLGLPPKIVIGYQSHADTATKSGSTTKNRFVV

human eIF4E1a protein [3] = target: T1, human eIF4E1a protein (human, UniProt P06730 1-217); assay: as above; settings: both partners purified
T1 construct: human eukaryotic translation initiation factor 4E, isoform called eIF4E1a; Extinction coefficient used: 52,940 M^-1 cm^-1; also called heIF4E1a; eukaryotic initiation factor 4E
T1 sequence (P06730 whole entry, canonical isoform): as the sequence (P06730 whole entry) above

human eIF4E1a protein [4] = target: T1, human eIF4E1a protein; assay: as above; settings: both partners purified; remark: listed apart in the source
human eIF4E1a protein [5] = target: T1, human eIF4E1a protein; assay: ITC; non-reducing: 50 mM HEPES-KOH pH 7.2, 100 mM KCl, no TCEP, 20 °C; 20 µM eIF4E1a in the cell titrated with 200 µM h4E-T(1-68) WT; one-site model; settings: both partners purified
human eIF4E1a protein [6] = target: T2, human eIF4E1a protein (human, UniProt P06730 1-217); assay: ITC; eIF4E1a (5 or 10 uM) in the cell, titrated with a ten-fold concentrated h4E-T(1-68) variant; 20 °C; 50 mM HEPES-KOH pH 7.2, 100 mM KCl, with 1 mM TCEP (reducing); one-site model; settings: both partners purified
T2 construct: eukaryotic translation initiation factor 4E, isoform 1a (eIF4E1a), human; Extinction coefficient used: 52,940 M^-1 cm^-1; also called heIF4E1a; eukaryotic initiation factor 4E
T2 sequence (P06730 whole entry, canonical isoform): as the sequence (P06730 whole entry) above

human eIF4E1a protein [7] = target: T1, human eIF4E1a protein; assay: ITC; reducing: 50 mM HEPES-KOH pH 7.2, 100 mM KCl, 1 mM TCEP, 20 °C; 5 or 10 µM eIF4E1a in the cell titrated with ten-fold concentrated h4E-T(1-68) variant; one-site model; settings: both partners purified
human eIF4E1a protein [8] = target: T1, human eIF4E1a protein; assay: differential scanning fluorimetry (thermal shift); reducing: 50 mM HEPES-KOH pH 7.2, 100 mM KCl, 1 mM TCEP; 5 µM eIF4E1a with 0-50 µM h4E-T(1-68) variant; SYPRO Orange; shift of the Tm of eIF4E1a; settings: both partners purified
human eIF4E1a protein [9] = target: T1, human eIF4E1a protein; assay: as above; settings: both partners purified; remark: listed apart in the source
human eIF4E1a protein [10] = target: T2, human eIF4E1a protein; assay: ITC; eIF4E1a in the cell, titrated with a ten-fold concentrated h4E-T(1-68) variant (for WT: 20 uM eIF4E1a, 200 uM h4E-T); 20 °C; 50 mM HEPES-KOH pH 7.2, 100 mM KCl, without TCEP (non-reducing); one-site model; settings: both partners purified
[11] = target: the molecule itself; assay: SEC; non-reducing: monomer fractions incubated 24 h at 20 °C in TCEP-free 50 mM HEPES-KOH pH 7.2 with KCl, Enrich SEC70 column, 20 °C; dimers are held by intermolecular disulphide bonds

percent in the dimeric form [1]: 10% | stoichiometry N [1]: 2
Molecule: human 4E-T(1-68) wild type, monomer SH (both cysteines reduced) (from UniProt Q9NRA8 1-68) (domain or fragment)

Ka (human eIF4E1a protein [6]): 3.73e+08 ± 6.8e+07 M⁻¹
B2: human 4E-T(1-68) wild type, reduced (monomer SH) (domain or fragment, UniProt Q9NRA8 1-68, looked up)
chain: MDRRSMGETESGDAFLDLKKPPASKCPHRYTKEELLDIKELPHSKQRPSCLSEKYDSDGVWDPEKWHA
notes: 4E-Transporter (4E-T), human, residues 1-68; The His6-tag is cleavable by thrombin, but no cleavage is described; Kept in 1 mM TCEP, with both cysteines reduced; also called h4E-T(1-68) WT; h4ET(1-68)

Kd (human eIF4E1a protein [7]): 2.7 ± 0.5 nM
B3: human 4E-T(1-68) wild type, monomer SH (both cysteines reduced) (domain or fragment, UniProt Q9NRA8 1-68, looked up)
chain: B2 chain
notes: pET28a construct, His6-tag cleavable by thrombin; also called h4E-T(1-68) WT; h4ET(1-68)
Tm of eIF4E in the 1:1 mixture (zero time) (human eIF4E1a protein [8]): 52.5 ± 0.5 °C | ΔTm of eIF4E at eIF4E:h4E-T(1-68) 1:1 (human eIF4E1a protein [9]): 12 ± 0.5 °C | ΔTm of eIF4E at eIF4E:h4E-T(1-68) 1:10 (human eIF4E1a protein [9]): 15.5 ± 0.5 °C | Tm of eIF4E in the 1:1 mixture (melting peak after 3 h at 20 °C without TCEP) (human eIF4E1a protein [4]): 51.5 ± 0.5 °C

Kd (human eIF4E1a protein [7]): 1.5 ± 0.5 nM
B6: human 4E-T(1-68) C26A (domain or fragment, UniProt Q9NRA8 1-68, looked up)
chain: B2 chain with C26A
notes: human 4E-Transporter (4E-T), N-terminal fragment, residues 1-68; Without TCEP the samples are a mixture of monomer and disulphide-linked dimer; also called C26A mutant; C26 mutant
ΔTm of eIF4E at eIF4E:h4E-T(1-68) 1:1 (human eIF4E1a protein [3]): 9 ± 0.5 °C | ΔTm of eIF4E at eIF4E:h4E-T(1-68) 1:10 (human eIF4E1a protein [3]): 12.5 ± 0.5 °C | stoichiometry N [11]: 2 | ΔTm of eIF4E at eIF4E:h4E-T(1-68) 1:1 (human eIF4E1a protein [9]): 12 ± 0.5 °C | ΔTm of eIF4E at eIF4E:h4E-T(1-68) 1:10 (human eIF4E1a protein [9]): 15.5 ± 0.5 °C

Ka (human eIF4E1a protein [10]): 3.27e+08 ± 2.2e+07 M⁻¹
B7: human 4E-T(1-68) C26AC50A (domain or fragment, UniProt Q9NRA8 1-68, looked up)
chain: B2 chain with C26A, C50A
notes: 4E-Transporter (4E-T), human, residues 1-68, with C26A and C50A; This mutant cannot form any disulphide bond; also called h4E-T(1-68)C26AC50A; double cysteine mutant

Kd (human eIF4E1a protein [7]): 3.1 ± 0.2 nM
B9: human 4E-T(1-68) C26AC50A (domain or fragment, UniProt Q9NRA8 1-68, looked up)
chain: B2 chain with C26A, C50A
notes: human 4E-Transporter (4E-T), N-terminal fragment, residues 1-68; also called double cysteine mutant
ΔTm of eIF4E at eIF4E:h4E-T(1-68) 1:1 (human eIF4E1a protein [3]): 10.5 ± 0.5 °C | ΔTm of eIF4E at eIF4E:h4E-T(1-68) 1:10 (human eIF4E1a protein [3]): 14.5 ± 0.5 °C

Second part, the molecule before the results:

Molecule: dimeric form of human 4E-T(1-68) C50A (intermolecular disulphide bond) (from UniProt Q9NRA8 1-68) (complex)
fold lower ΔTm than the corresponding monomer [2]: 2 fold | ΔTm lower than that of the monomer-dimer mixture [2]: 2.5 °C | ΔΔTm against the monomer SS of WT h4E-T(1-68), 1:1 mixture [2]: 7 °C

Molecule: dimeric form of human 4E-T(1-68) C26A (intermolecular disulphide bond) (from UniProt Q9NRA8 1-68) (complex)
fold lower ΔTm than the corresponding monomer [2]: 2 fold | ΔTm lower than that of the monomer-dimer mixture [2]: 2.5 °C | ΔΔTm against the monomer SS of WT h4E-T(1-68), 1:1 mixture [2]: 5.5 °C

B1: human 4E-T(1-68) wild type with the intramolecular disulphide bond Cys26-Cys50 (monomer SS) (domain or fragment, UniProt Q9NRA8 1-68, looked up)
chain: B2 chain
modifications: disulfide 26-50
notes: human 4E-Transporter (4E-T), N-terminal fragment, residues 1-68; Same construct as m2, oxidised; The samples without TCEP may still hold some monomer SH and a small fraction of dimer; also called h4E-T(1-68) WT under non-reducing conditions; disulphide loop form
ΔTm of eIF4E at eIF4E:h4E-T(1-68) 1:1 (human eIF4E1a protein [3]): 1 ± 0.5 °C | ΔTm of eIF4E at eIF4E:h4E-T(1-68) 1:10 (human eIF4E1a protein [3]): 9.5 ± 0.5 °C | Tm of eIF4E in the 1:1 mixture (melting peak after 3 h at 20 °C without TCEP) (human eIF4E1a protein [4]): 41.5 ± 0.5 °C | Kd (human eIF4E1a protein [5]): 800 ± 96 nM

B4: human 4E-T(1-68) wild type under non-reducing conditions (monomer SS, intramolecular disulphide bond) (domain or fragment, UniProt Q9NRA8 1-68, looked up)
chain: B2 chain
modifications: disulfide 26-50
notes: 4E-Transporter (4E-T), human, residues 1-68; Same construct as Wm2, in TCEP-free buffer; also called h4E-T(1-68) WT without TCEP; disulphide loop form
Ka (human eIF4E1a protein [10]): 1.25e+06 ± 150000 M⁻¹

B5: human 4E-T(1-68) C26A (domain or fragment, UniProt Q9NRA8 1-68, looked up)
chain: B2 chain with C26A
notes: 4E-Transporter (4E-T), human, residues 1-68, with C26A; also called h4E-T(1-68)C26A; C26A mutant
Ka (human eIF4E1a protein [6]): 6.64e+08 ± 8.4e+07 M⁻¹ | Ka (human eIF4E1a protein [10]): ~1e+08 M⁻¹

B8: human 4E-T(1-68) C50A (domain or fragment, UniProt Q9NRA8 1-68, looked up)
chain: B2 chain with C50A
notes: human 4E-Transporter (4E-T), N-terminal fragment, residues 1-68; Without TCEP the samples are a mixture of monomer and disulphide-linked dimer; also called C50A mutant
ΔTm of eIF4E at eIF4E:h4E-T(1-68) 1:1 (human eIF4E1a protein [3]): 10.5 ± 0.5 °C | ΔTm of eIF4E at eIF4E:h4E-T(1-68) 1:10 (human eIF4E1a protein [3]): 14.5 ± 0.5 °C | stoichiometry N [11]: 2 | ΔTm of eIF4E at eIF4E:h4E-T(1-68) 1:1 (human eIF4E1a protein [8]): 12 ± 0.5 °C | ΔTm of eIF4E at eIF4E:h4E-T(1-68) 1:1 (human eIF4E1a protein [9]): 11.5 ± 0.5 °C | ΔTm of eIF4E at eIF4E:h4E-T(1-68) 1:10 (human eIF4E1a protein [9]): 15.5 ± 0.5 °C
